From publication PMC11251522, “Transcription factors ERα and Sox2 have differing multiphasic DNA- and RNA-binding mechanisms”

Legend:
[1] = target: T1, Sox2 HMG (human, UniProt P48431 40-123); test: fluorescence anisotropy; apparent; Hill n 0.68; FP at 4°C; ERα: 20 mM Tris pH 7.5 (at 25°C), 100 mM NaCl, 5% glycerol, 0.01% IGEPAL; Sox2: 10 mM Tris pH 7.5 (at 25°C), 135 mM KCl, 15 mM NaCl, 0.1 mg/mL BSA, 4% Ficoll, 0.05% NP-40, 1 mM DTT; SPR: ERα buffer, 25°C; conditions: protein: recombinant; tags: N-terminal His8-MBP, 3C-cleaved
[2] = target: T1, Sox2 HMG; test: fluorescence anisotropy; second (low-affinity) transition; FP at 4°C; ERα: 20 mM Tris pH 7.5 (at 25°C), 100 mM NaCl, 5% glycerol, 0.01% IGEPAL; Sox2: 10 mM Tris pH 7.5 (at 25°C), 135 mM KCl, 15 mM NaCl, 0.1 mg/mL BSA, 4% Ficoll, 0.05% NP-40, 1 mM DTT; SPR: ERα buffer, 25°C; conditions: protein: recombinant; tags: N-terminal His8-MBP, 3C-cleaved; G-quadruplex
[3] = target: T1, Sox2 HMG; test: fluorescence anisotropy; printed ≤1; first (high-affinity) transition, 44% of signal; FP at 4°C; ERα: 20 mM Tris pH 7.5 (at 25°C), 100 mM NaCl, 5% glycerol, 0.01% IGEPAL; Sox2: 10 mM Tris pH 7.5 (at 25°C), 135 mM KCl, 15 mM NaCl, 0.1 mg/mL BSA, 4% Ficoll, 0.05% NP-40, 1 mM DTT; SPR: ERα buffer, 25°C; conditions: protein: recombinant; tags: N-terminal His8-MBP, 3C-cleaved; G-quadruplex

T1 sequence (P48431 40-123): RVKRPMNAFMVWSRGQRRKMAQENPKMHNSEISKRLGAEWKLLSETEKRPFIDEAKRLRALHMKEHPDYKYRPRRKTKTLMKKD

Row | Binder | Kd [1] [nM] | Kd [2] [nM] | Kd [3] [nM]
1 | AAAAAAAAAAAAAAAAAAAA (ssRNA) [poly(A) RNA (rA20)] | 40 ± 13 |  | 
2 | GGGAAGGGAAGGGAAGGGAA (structured_RNA) [G4 RNA (rG4), (G3A2)4] |  | 110 ± 32 | < 1
